The values below come from patent US20190211111A1.

The assay addresses GCN4 peptide-fused αCD19 Fab (Rodgers et al.). In words: ELISA, coated GCN4 peptide-fused αCD19 Fab, detection with anti-human lambda-HRP.

Regarding αGCN4-Fab (LC-G202X, HC-K129X, X=pAcF), the EC50 came to 1 nM.
For αGCN4-Fab (LC-S155X, HC-K129X, X=pAcF), the EC50 worked out at 1 nM.
In the case of αGCN4-Fab (LC-S193X, HC-K129X, X=pAcF) it was 1 nM.

In general, EC50 refers to the concentration needed to bring the measured effect to its halfway point. High values mean lower potency in that assay, low ones higher potency in that assay.
